Data on two substances can be found in PMC7137635.

The target in test [1] is GST fusion of human OPTN (aa 2-311), Q96CV9-1. Nature of the test: phage ELISA. The conditions noted are these: Background correction to BSA signal was applied; read off a plot.
The target in test [2] is p62 LIR (Homo sapiens) (UniProt Q13501). The conditions noted are these: cited from earlier work.

GATE-16, sequence (P60520 1-116): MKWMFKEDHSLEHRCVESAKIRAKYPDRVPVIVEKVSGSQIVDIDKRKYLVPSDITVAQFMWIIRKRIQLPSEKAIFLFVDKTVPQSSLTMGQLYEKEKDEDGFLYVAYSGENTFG

In turn, “LC3Bwt displayed on phage (from UniProt Q9GZQ8) F11L; R14L; R15N; Q19L; E22D; D23N; [26-28]I (column not resolved, see notes); K53I; K55G” returned a response in test [1] of 0.91 OD 450 nm. As to GATE-16 (from UniProt P60520), the Kd in test [2] is 5.2 µM.
